US20180155451A1 (published 2018)
Substitutions are numbered along the chain they refer to. Numbers in names are those of the source. Where two headings read alike, the source gives them in different places.

How the values were obtained:
[1] = target: T1, FcgRIa extracellular domain with C-terminal His tag (human, UniProt P12314 16-292); assay: SPR (Biacore), antibody captured on chip, soluble FcgR as analyte, kinetic 1:1 fit
T1 construct: extracellular domain; Expressed in FreeStyle293 cells; also called FcγRIa; not shown: His tag at the C terminus
T1 sequence (P12314 16-292): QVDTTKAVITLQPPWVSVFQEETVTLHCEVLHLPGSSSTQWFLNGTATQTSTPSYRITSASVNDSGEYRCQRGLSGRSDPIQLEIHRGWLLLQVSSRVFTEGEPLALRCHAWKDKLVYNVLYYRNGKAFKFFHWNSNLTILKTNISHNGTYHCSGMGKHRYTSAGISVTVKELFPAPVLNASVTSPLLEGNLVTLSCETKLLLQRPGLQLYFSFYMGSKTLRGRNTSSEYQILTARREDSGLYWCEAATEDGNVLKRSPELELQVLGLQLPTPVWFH
Protocol: (§1) The variants were assessed for the binding activity to FcgR Ia, FcgR IIaR, FcgR IIaH, and FcgRIIb according to the method described in Reference Example 8.
(§2) Analysis of interaction between obj ective antibody and the FcγR was carried out using Biacore T100 (GE Healthcare), Biacore T200, Biacore A100, and Biacore 4000. HBS-EP+ (GE Healthcare) was used as the running buffer, and the measurement temperature was set to 25° C. Chips produced by immobilizing the antigen peptide by the amine coupling method to a Series S sensor Chip CM5 (GE Healthcare), chips produced by allowing preliminarily biotinylated antigen peptides to interact with and immobilize onto a Series S Sensor Chip SA (certified) (GE Healthcare), chips produced by immobilizing Protein L (ACTIGEN, BioVision) to Series S Sencor Chip CM5 (GE Healthcare), or chips produced by immobilizing Protein A/G (Thermo Scientific) to Series S Sencor Chip CM5 (GE Healthcare) were used. Antibodies of interest were captured onto these chips, and allowed to interact to each FcγR diluted with running buffer. To regenerate and repeatedly use the chip, the antibodies captured onto the chip were washed off by reacting 10 mM glycine-HCl, pH 1.5.

[2] = target: T2, FcgRIIa type H extracellular domain with C-terminal His tag (human, UniProt P12318 34-217); assay: as above
T2 construct: extracellular domain; also called FcgRIIaH; FcgRIIa H; not shown: His tag at the C terminus
T2 sequence (looked up): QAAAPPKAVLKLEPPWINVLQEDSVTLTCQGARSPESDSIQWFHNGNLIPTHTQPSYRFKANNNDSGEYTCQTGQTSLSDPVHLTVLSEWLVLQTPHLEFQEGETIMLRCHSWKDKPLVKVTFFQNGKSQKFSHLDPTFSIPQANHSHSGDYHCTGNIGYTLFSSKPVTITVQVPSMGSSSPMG
Protocol: as §1, §2

[3] = target: T3, FcgRIIa type R extracellular domain with C-terminal His tag (human, UniProt P12318 34-217); assay: as above
T3 construct: extracellular domain; also called FcgRIIaR; FcgRIIa R; not shown: His tag at the C terminus
T3 sequence (looked up): T2 sequence (looked up) with H134R
Protocol: as §1, §2

[4] = target: T4, FcgRIIb extracellular domain with C-terminal His tag (human, UniProt P31994 43-217); assay: as above
T4 construct: extracellular domain; Expressed in FreeStyle293 cells; also called FcγRIIb; 2b; not shown: His tag at the C terminus
T4 sequence (looked up): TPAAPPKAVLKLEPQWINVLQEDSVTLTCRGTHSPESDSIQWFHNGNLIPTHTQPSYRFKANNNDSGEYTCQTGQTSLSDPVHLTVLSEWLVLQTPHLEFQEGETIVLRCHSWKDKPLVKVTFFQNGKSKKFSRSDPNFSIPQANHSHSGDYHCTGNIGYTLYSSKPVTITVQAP
Protocol: as §1, §2

[5] = target: T5, FcgRIIIa type V extracellular domain with C-terminal His tag (human, UniProt P08637 17-208); assay: SPR (Biacore), antibody captured on chip, soluble FcgR as analyte; too weak for kinetics, KD from steady-state 1:1 equation
T5 construct: extracellular domain; also called FcgRIIIaV; FcgRIIIa V; not shown: His tag at the C terminus
T5 sequence (P08637 17-208 F176V): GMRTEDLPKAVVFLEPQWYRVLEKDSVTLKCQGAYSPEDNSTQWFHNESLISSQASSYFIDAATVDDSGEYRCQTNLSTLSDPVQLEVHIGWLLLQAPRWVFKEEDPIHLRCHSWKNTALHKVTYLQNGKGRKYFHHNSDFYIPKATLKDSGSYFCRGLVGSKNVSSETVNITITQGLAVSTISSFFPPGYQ
Protocol: KD can be calculated by substituting the values of Rmax, RI, and C into this equation. The values of RI and C can be determined from the sensorgram of the measurement results and measurement conditions. Rmax was calculated according to the following method.

[6] = target: T4, FcgRIIb extracellular domain with …; assay: SPR (Biacore); KD of the sample for FcgRIIaR divided by its KD for FcgRIIb (selectivity for FcgRIIb)
Protocol: as §2

[7] = target: T2, FcgRIIa type H extracellular domain …; assay: SPR (Biacore); KD of IL6R-B3/IL6R-L for this FcgR divided by KD of the sample
Protocol: as §2

[8] = target: T3, FcgRIIa type R extracellular domain …; assay: as above
Protocol: as §2

[9] = target: T4, FcgRIIb extracellular domain with …; assay: as above
Protocol: as §2

FcgRIIIa V [10] = target: T6, FcgRIIIa V (human, UniProt P08637 17-208); assay: SPR (Biacore), antibody captured on chip, FcgR extracellular domain as analyte
T6 construct: extracellular domain; also called FcγRIIIa V; not shown: His tag attached to the C terminus
T6 sequence (P08637 17-208 F176V limits assumed): as the sequence (P08637 17-208 F176V) above
Protocol: (§3) Similarly, H240-AK072 and L73-k0, and H240-BH076 and L73-k0 were each combined to express and prepare the homodimerized antibodies H240-AK072/L73-k0 and H240-BH076/L73-k0. The antibodies were compared for the binding to each FcgR according to the method described in Reference Example 8.
as §2

FcgRIIIa F [11] = target: T7, FcgRIIIa F (human, UniProt P08637 17-208); assay: as above
T7 construct: extracellular domain; also called FcγRIIIa F; not shown: His tag attached to the C terminus
T7 sequence (P08637 17-208): as the sequence (P08637 17-208 F176V) above, with V160F counted along it
Protocol: as §3, §2

FcgRIIIa V [12] = target: T6, FcgRIIIa V; assay: as above; remark: listed apart in the source
Protocol: as §2

FcgRIa = target: T8, FcgRIa (human, UniProt P12314 16-292); assay: as above
T8 construct: extracellular domain; Expressed in FreeStyle293 cells and purified; used as analyte in Biacore; also called FcγRIa; FcγRI; not shown: His tag attached to the C terminus
T8 sequence (P12314 16-292): as the sequence (P12314 16-292) above
Protocol: as §2

FcgRIIa R = target: T9, FcgRIIa R (human, UniProt P12318 34-217); assay: as above
T9 construct: extracellular domain; also called FcγRIIa R; FcγRIIa type R; not shown: His tag attached to the C terminus
T9 sequence (looked up): T2 sequence (looked up) with H134R
Protocol: as §2

FcgRIIIa F [13] = target: T7, FcgRIIIa F; assay: as above; remark: listed apart in the source
Protocol: as §2

FcgRIIa H = target: T10, FcgRIIa H (human, UniProt P12318 34-217); assay: as above
T10 construct: extracellular domain; also called FcγRIIa H; FcγRIIa type H; not shown: His tag attached to the C terminus
T10 sequence (looked up): T2 sequence (looked up)
Protocol: as §2

FcgRIIb = target: T11, FcgRIIb (human, UniProt P31994 43-217); assay: as above
T11 construct: extracellular domain; Expressed in FreeStyle293 cells and purified; used as analyte in Biacore; also called FcγRIIb; CD32B; not shown: His tag attached to the C terminus
T11 sequence (looked up): T4 sequence (looked up)
Protocol: as §2

B1: IL6R-AP002/IL6R-BP256/IL6R-L (antibody, human IgG1, kappa)
heavy 1: QVQLQESGPGLVKPSETLSLTCAVSGHSISHDHAWSWVRQPPGEGLEWIGFISYSGITNYNPSLQGRVTISRDNSKNTLYLQMNSLRAEDTAVYYCARSLARTTAMDYWGEGTLVTVSSASTKGPSVFPLAPSSKSTSGGTAALGCLVKDYFPEPVTVSWNSGALTSGVHTFPAVLQSSGLYSLSSVVTVPSSSLGTQTYICNVNHKPSNTKVDKKVEPKSCDKTHTCPPCPAPDLLGDDSVFLFPPKPKDTLMISRTPEVTCVVVDVSDEDGEVKFNWYVDGVEVHNAKTKPREEQYNSTYRVVSVLTVLHQDWLNGKEYKCKVSNKALPRPIEKTISKAKGQPREPQVYTLPPSRKELTKNQVSLTCLVKGFYPSDIAVEWESNGQPENNYKTTPPVLDSDGSFFLYSKLTVDKSRWQQGNVFSCSVMHEALHNRYTQKSLSLSP
heavy 2: B1 heavy 1 with S241D, K358D, R437H, K441E
light: not shown
notes: Heterodimerized antibody with S239D in one H chain only; IL6R-AP002 is IL6R-A5 (IL6R-G1d with D356K and H435R) with E233D, G237D, P238D, H268D, P271G and A330R
Kd [1]: 3.6 nM | Kd [2]: 4200 nM | Kd [3]: 140 nM | Kd [4]: 4.1 nM | Kd [5]: 17000 nM | KD(IIaR)/KD(IIb) [6]: 34.3 ratio | Relative KD [7]: 0.2 ratio | Relative KD [8]: 7.7 ratio | Relative KD [9]: 752 ratio

B2: H240-AK072/L73-k0 (antibody, human IgG1, kappa)
heavy: QDQLVQSGAEVKKPGASVKVSCKASGFNIKDTYIQWVRQAPGQGLEWMGRIDPLRKQTKYREKFEGRVTITADTSTNTAYMELSSLRSEDTAVYYCVRSGREFDYWGQGTLVTVSSASTKGPSVFPLAPSSKSTSGGTAALGCLVKDYFPEPVTVSWNSGALTSGVHTFPAVLQSSGLYSLSSVVTVPSSSLGTQTYICNVNHKPSNTKVDKKVEPKSCDKTHTCPPCPAPEYYWGPSVFLFPPKPKDTLMISRTPEVTCVVVDVSDEEPEVKFNWYVDGVEVHNAKTKPREEQYNATYRVVSVLTVLHQDWLNGKEYKCKVSNKALPAPIEKTISKAKGQPREPQVYTLPPSRKEMTKNQVSLTCLVKGFYPSDIAVEWESNGQPENNYKTTPPVLDSDGSFFLYSKLTVDKSRWQQGNVFSCSVMHEALHNRYTQKSLSLSP
light: DIQMTQSPSSLSASVGDRVTITCRASQDIHKYIAWYQQKPGQAPRLLIQYTSTLQPGVPSRFSGSGSGTDYTFTISSLQPEDIATYYCLQYEQLRTFGGGTKVEIKRTVAAPSVFIFPPSDEQLKSGTASVVCLLNNFYPREAKVQWKVDNALQSGNSQESVTEQDSKDSTYSLSSTLTLSKADYEKHKVYACEVTHQGLSSPVTKSFNRGEC
notes: Homodimerized anti-EREG IgG1: H240-A5E (D356K/H435R) with L234Y/L235Y/G236W/H268D/D270E/S298A in both H chains
Kd (FcgRIIIa V [10]): 29 nM | Kd (FcgRIIIa F [11]): 300 nM

B3: H240-AK072/H240-BH076/L73-k0 (antibody, human IgG1, kappa)
heavy 1: B2 heavy
heavy 2: QDQLVQSGAEVKKPGASVKVSCKASGFNIKDTYIQWVRQAPGQGLEWMGRIDPLRKQTKYREKFEGRVTITADTSTNTAYMELSSLRSEDTAVYYCVRSGREFDYWGQGTLVTVSSASTKGPSVFPLAPSSKSTSGGTAALGCLVKDYFPEPVTVSWNSGALTSGVHTFPAVLQSSGLYSLSSVVTVPSSSLGTQTYICNVNHKPSNTKVDKKVEPKSCDKTHTCPPCPAPELLGGPSVFLFPPKPKDTLMISRTPEVTCVVVDVSHEEPEVKFNWYVDGVEVHNAKTKPREEQYNSTYRVVSVLTVLHQDWLNGKEYKCKVSNDALPMPIEETISKAKGQPREPQVYTLPPSREEMTKNQVSLTCLVKGFYPSDIAVEWESNGQPENNYKTTPPVLDSDGSFFLYSKLTVDKSRWQQGNVFSCSVMHEALHNHYTQESLSLSP
light: B2 light
notes: Heterodimerized anti-EREG IgG1 made with D356K/H435R and K439E in place of knobs-into-holes
Kd (FcgRIIIa V [10]): 0.98 nM | Kd (FcgRIIIa F [11]): 3.7 nM | Kd (FcgRIIIa V [12]): 0.98 nM | Kd (FcgRIa): 0.24 nM | Kd (FcgRIIa R): 460 nM | Kd (FcgRIIIa F [13]): 3.7 nM | Kd (FcgRIIa H): 130 nM | Kd (FcgRIIb): 2900 nM

B4: H240-BH076/L73-k0 (antibody, human IgG1, kappa)
heavy: B3 heavy 2
light: B2 light
notes: Homodimerized anti-EREG IgG1: H240-B3E (K439E) with D270E/K326D/A330M/K334E in both H chains
Kd (FcgRIIIa V [10]): 5.3 nM | Kd (FcgRIIIa F [11]): 26 nM
